Experiments:
[1] = biological target: TFIIICΔtail complex (S. cerevisiae TFIIIC with τ95 truncated at residue 593) (S. cerevisiae) (UniProt P34111); assay: mass photometry; TFIIICΔtail at 50 and 100 nM, with and without 85- and 120-bp tRNA^His DNA; 20 mM HEPES pH 8, 100 mM KCl, 2 mM MgCl2, 5 mM DTT
[2] = biological target: TFIIICΔtail complex (S. cerevisiae TFIIIC with τ95 truncated at residue 593) (S. cerevisiae) (UniProt P34111); assay: cryo-EM structure; τB–DNA dimer classes of dataset 1 (2 μM TFIIICΔtail with equimolar 85-bp tRNA^His DNA, 200 mM KCl); map with preferred orientation, no model deposited

stoichiometry N [1]: 2
stoichiometry N [2]: 2
Substance: TFIIICΔtail complex (S. cerevisiae TFIIIC with τ95 truncated at residue 593), P34111 1-1160; P33339 1-1025; P32367 1-593; Q06339 1-672; Q12308 1-588; Q12415 1-435

— PMC11724288
